Reference: the supplement of paper PMC12636428

Each sequence was assayed on Saccharomyces cerevisiae (assay: transcriptional activation domain activity (GFP:mCherry ratio, weighted mean of sorted bins, harmonized to initial dataset scale) (arbitrary fluorescence ratio units); higher = stronger transcriptional activation). Details: beta-estradiol 1 µM; induction time 4 h.
Summary of the method: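 Each value is an activation activity: the read-weighted mean of bin median fluorescence, averaged across barcodes, then mapped linearly to the initial dataset scale. The tiles, fused to an estradiol-inducible synthetic transcription factor, sat at the yeast URA3 locus in GFP-reporter diploids. Cells spent 4 hours at 30 °C in SC with 1 uM beta-estradiol before sorting into 8 GFP:mCherry bins, and tiles below 50 reads were removed.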

Q: How did the “transcriptional activation domain activity” value turn out when “QQGGGAAASSSGAAQTTSDHVHKDEKEEDKDRDKKKEEEEKEKRKKRREKNKK” was run?
A: 23700

Q: With “HQLGATESGLRAKNDGKLVQAEARAEGRVTFRTYLTYVRAAGTWTWMMTIFFL” as the sequence, how does the “transcriptional activation domain activity” value read?
A: 52800

Q: With “MNFWAWFFFFFYSLLILITSFLSFVFFFSLFLFWFLFLFLFPFLSLLIFPLPS” as the sequence, how does the “transcriptional activation domain activity” value read?
A: 41100

Q: How did the “transcriptional activation domain activity” value turn out when “MITTLYHHVRYILIRQPRRPVSLLDQPAVLNYLYVLLYHTIVTFNILTPAVYW” was run?
A: 49600

Q: Which “transcriptional activation domain activity” value does the source give for “MGCFFSFLFFFLFLFLFRSTVQSKVAFSLSLFFSLFKYLFFCCLVLGYFYLVL” here?
A: 70500

Q: “WVMYVIFITVGWYAMVTGQSIVLYSRLHLVVNSIKVLRFVLILICVDVVILHV” was tested. Which “transcriptional activation domain activity” value did it give?
A: 67500

Q: For “MGLWARFICFVIVCFQIISLYCLFSCSLFFLYLQKTQPHFFLLSLFPSSFPPS”, which “transcriptional activation domain activity” value is on record?
A: 62700

Q: Which “transcriptional activation domain activity” value does the source give for “MGFLFLLCVLVVWVFFRAWFFCFLFFLFLFLVLLFRYLFIYFLWSWYGGGSVG” here?
A: 48000

Q: For “VMLSFFICRPILRLLHVFHISSPIYLYLPFVPLHLLIYPSFLIDVGLLSMVLA”, which “transcriptional activation domain activity” value is on record?
A: 65200

Q: How did the “transcriptional activation domain activity” value turn out when “GVCLKVGITKPKKPNSAERKTARVRLSTGRVVTAYIPGEGHNVQQHSVVLVRG” was run?
A: 39500

Q: With “GILVLLLVYSNLVLLIYHPPTSKRPLDHLFIHVPIRLFLILPLSLMFPYSLLY” as the sequence, how does the “transcriptional activation domain activity” value read?
A: 43900

Q: For “PPPHLQLIYSCKAVRSSIQIFFDRAFIFKCSSSLWVCIVMFSRWLRTIRLFVW”, which “transcriptional activation domain activity” value is on record?
A: 85600

Q: How did the “transcriptional activation domain activity” value turn out when “KRNKPNACGGCGAESDENGGALMMCSRCKDRKYCGAECQKTHWKVHKKVCEVA” was run?
A: 58500

Q: How did the “transcriptional activation domain activity” value turn out when “TLKGIVLRNPVTLRLEEEEDDAANLTQYFVKCSEVDKFLLIQVMIKMRMIKGK” was run?
A: 46700

Q: “ALLSSLHFGLGSHFRDIILKHPQWLIPLMRWLYIQNATYFNCSGIVKMSLLFQ” was tested. Which “transcriptional activation domain activity” value did it give?
A: 46400

Q: With “ASFLVLRDIRLLDCFSVLASCGYVSLFPLIYTCDEWLIKVVYTLLWYIIYYFS” as the sequence, how does the “transcriptional activation domain activity” value read?
A: 84300

Q: How did the “transcriptional activation domain activity” value turn out when “HTQPNLVPWLRCFPADAISVELISHEYIIRILRPILPADWQRPLFYSHRIRMY” was run?
A: 28900

Q: “SSQTPVLLWIIHFILPNLCILLYFTLQLIYLLRHHKSKWLIGDLVHSYCFYFI” was tested. Which “transcriptional activation domain activity” value did it give?
A: 81000

Q: Which “transcriptional activation domain activity” value does the source give for “CMELMLHYIYVVAISNSSPDWSAYTPFQLSMLGYFNLHHIWLKLLIPWRFFRL” here?
A: 80500

Q: How did the “transcriptional activation domain activity” value turn out when “MCHLTLLSLCFCSVASLLLSLFPLSLCLPFFILFIPPLFFLPHHIPSSFSFLV” was run?
A: 59600

Q: How did the “transcriptional activation domain activity” value turn out when “MSSLFFSFQAVQFWFLGFLGLSWFRLVSTSYNIVDFLSFLSVHHHVLSWLGIP” was run?
A: 63500

Q: With “LARFACLTCDHNWLEDLIFGATDAIEEAFFANDITCLVFWLYNTTLWLHLMQC” as the sequence, how does the “transcriptional activation domain activity” value read?
A: 51400

Q: Which “transcriptional activation domain activity” value does the source give for “EWTRLVQNPAASPRLLNGFIRQMLADLPTTSILVLVRTALEVSVESYAQAGST” here?
A: 58700

Q: For “EDEEDLSSKPRCQRCRKSKKGCDRQRPCQRCKDAGLSADQCVSEDEGNGRKGR”, which “transcriptional activation domain activity” value is on record?
A: 15700

Q: How did the “transcriptional activation domain activity” value turn out when “RKERKREKESERRERHHRRSQTHSSDEARERHRDGKTKQSRSSDRDPRKTRAR” was run?
A: 30800

Q: With “EEEEEEERPAKRQKKKLAAEEDEEEGEGEGEEEEEEEERPAKRQKKKPAAEDE” as the sequence, how does the “transcriptional activation domain activity” value read?
A: 26900

Q: “MIIFFFFFFLLCHWINTGIIFHVLDLMVKFLFFIFVDQQKKLSLLLFIHFAWL” was tested. Which “transcriptional activation domain activity” value did it give?
A: 54700

Q: Which “transcriptional activation domain activity” value does the source give for “MPDVIFKPPPADPCHYDMCLVLYYSVLFSHFIVGFFLRVLHLWCSLLHFYSRI” here?
A: 63500

Q: Which “transcriptional activation domain activity” value does the source give for “DFLLSLHGIRTVYLFMFVINSFLHPLRTLIHLWCLIFISVYQHRLFFFFFFFF” here?
A: 61200

Q: With “LGLDSGYLWSGILYNLSVTISLYSLGMFWVCMSKDLQPFRPVPKFLCIKLIIF” as the sequence, how does the “transcriptional activation domain activity” value read?
A: 53200

Q: For “MSLRRSCLIFRWHVFMLLLMLFVRTWLVRLLVFLVFVVLMVRLLSLFPPFPLS”, which “transcriptional activation domain activity” value is on record?
A: 32200

Q: “KLYYLAFYSGNILRRDLNLIIGVGKNWNLPAFWAPLLRYVTCPILAIIYSMAY” was tested. Which “transcriptional activation domain activity” value did it give?
A: 63600

Q: Which “transcriptional activation domain activity” value does the source give for “FVYELWRHGGLGVYSFRLTELLVKVVLEAECKEIMDWWLEKQGYILHDLHRKA” here?
A: 50300

Q: For “MVQCAVAECAEEGQSQCGRCKQRFYCSAECQQKDWAAHKKACKKPTATAGPAP”, which “transcriptional activation domain activity” value is on record?
A: 39500

Q: With “ADASSSRPQQSKGDKGRSRAPGADRKQESSSSSARASGTGGNNTNGGSSSNNN” as the sequence, how does the “transcriptional activation domain activity” value read?
A: 34100

Q: How did the “transcriptional activation domain activity” value turn out when “CIIIVFIIRFLVLDLIGMFVCIYWVSFLFYFILFYFISRMVLHRVFFFFSFLI” was run?
A: 49700

Q: How did the “transcriptional activation domain activity” value turn out when “LNVLLGFLLLCFPNLERMVLNFGTVIAGPNHPGTLRKGYCEHCKLGVNVLEFD” was run?
A: 62000

Q: Which “transcriptional activation domain activity” value does the source give for “GIISRLVRHAHEMSYITSPLCELAAMLSINWWVKRPFIYFELFGYIRMVLLQS” here?
A: 86400

Q: How did the “transcriptional activation domain activity” value turn out when “AGQLGYDPVFGICWYNNSDPAMKLRWMLGSQLFWLLFMSTSEVVFFLVLVCFM” was run?
A: 43500

Q: “YSILLSVILIFWWSVFTYYPSHLSYLSQRFSYYVWGDDSIDAVTVFKAWVYAH” was tested. Which “transcriptional activation domain activity” value did it give?
A: 61800

Q: With “PVVDLNSCFSNGFNNEKQEIEMETDDSPILLMSSSASRENSNTFSVIQRTPDG” as the sequence, how does the “transcriptional activation domain activity” value read?
A: 52900
